Results on two molecules are retold here after paper PMC2639635, “The Structure of Phosphorylase Kinase Holoenzyme at 9.9 Å Resolution and Location of the Catalytic Subunit and the Substrate Glycogen Phosphorylase” (Structure(London, England:1993), 2009).

Sequences and labels used below:
B1: phosphorylase kinase β subunit (natural protein, rabbit (endogenous in skeletal muscle), UniProt P12798 1-1093, looked up)
chain: MAGATGLMAEVSWKVLERRARTKRSGSVYEPLKSINLPRPDNETLWDKLDYYYKIVKSTLLLYQSPTTGLFPTKTCGGDQTAKIHDSLYCAAGAWALALAYRRIDDDKGRTHELEHSAIKCMRGILYCYMRQADKVQQFKQDPRPTTCLHSLFNVHTGDELLSYEEYGHLQINAVSLYLLYLVEMISSGLQIIYNTDEVSFIQNLVFCVERVYRVPDFGVWERGSKYNNGSTELHSSSVGLAKAALEAINGFNLFGNQGCSWSVIFVDLDAHNRNRQTLCSLLPRESRSHNTDAALLPCISYPAFALDDDVLYNQTLDKVIRKLKGKYGFKRFLRDGYRTSLEDPKRRYYKPAEIKLFDGIECEFPIFFLYMMIDGVFRGNPKQVKEYQDLLTPVLHQTTEGYPVVPKYYYVPADFVEYEKRNPGSQKRFPSNCGRDGKLFLWGQALYIIAKLLADELISPKDIDPVQRYVPLQNQRNVSMRYSNQGPLENDLVVHVALVAESQRLQVFLNTYGIQTQTPQQVEPIQIWPQQELVKAYFHLGINEKLGLSGRPDRPIGCLGTSKIYRILGKTVVCYPIIFDLSDFYMSQDVLLLIDDIKNALQFIKQYWKMHGRPLFLVLIREDNIRGSRFNPMLDMLAALKNGMIGGVKVHVDRLQTLISGAVVEQLDFLRISDTEELPEFKSFEELEPPKHSKVKRQSSTSNAPELEQQPEVSVTEWRNKPTHEILQKLNDCSCLASQTILLGILLKREGPNFITQEGTVSDHIERLYRRAGSKKLWLAVRYGAAFTQKFSSSIAPHITTFLVHGKQVTLGAFGHEEEVISNPLSPRVIKNIIYYKCNTHDEREAVIQQELVIHIGWIISNNPELFSGMLKIRIGWIIHAMEYELQIRSGDKPAKDLYQLSPSEVKQLLLDILQPQQNGRCWLNKRQIDGSLNRTPTGFYDRVWQILERTPNGIIVAGKHLPQQPTLSDMTMYEMNFSLLVEDMLGNIDQPKYRQIVVELLMVVSIVLERNPELEFQDKVDLDKLVKEAFHEFQKDESRLKEIEKQDDMTSFYNTPPLGKRGTCSYLTKVVMNLLLEGEVKPSNEDSCLVS
notes: phosphorylase kinase β subunit, regulatory; printed as 125 kDa, 1092 amino acids; source: purified from rabbit fast-twitch skeletal muscle as part of the PhK holoenzyme

Details in all cases: both partners purified
The target of test [1] is T1, phosphorylase kinase α subunit (rabbit (endogenous in skeletal muscle), UniProt P18688 1-1237).
T1 construct: phosphorylase kinase α subunit, regulatory, skeletal muscle; printed as 138 kDa, 1237 amino acids; In the aged preparation used for Superdex 200 gel filtration the α subunit may have been partly proteolysed; source: purified from rabbit fast-twitch skeletal muscle as part of the PhK holoenzyme
T1 sequence (looked up): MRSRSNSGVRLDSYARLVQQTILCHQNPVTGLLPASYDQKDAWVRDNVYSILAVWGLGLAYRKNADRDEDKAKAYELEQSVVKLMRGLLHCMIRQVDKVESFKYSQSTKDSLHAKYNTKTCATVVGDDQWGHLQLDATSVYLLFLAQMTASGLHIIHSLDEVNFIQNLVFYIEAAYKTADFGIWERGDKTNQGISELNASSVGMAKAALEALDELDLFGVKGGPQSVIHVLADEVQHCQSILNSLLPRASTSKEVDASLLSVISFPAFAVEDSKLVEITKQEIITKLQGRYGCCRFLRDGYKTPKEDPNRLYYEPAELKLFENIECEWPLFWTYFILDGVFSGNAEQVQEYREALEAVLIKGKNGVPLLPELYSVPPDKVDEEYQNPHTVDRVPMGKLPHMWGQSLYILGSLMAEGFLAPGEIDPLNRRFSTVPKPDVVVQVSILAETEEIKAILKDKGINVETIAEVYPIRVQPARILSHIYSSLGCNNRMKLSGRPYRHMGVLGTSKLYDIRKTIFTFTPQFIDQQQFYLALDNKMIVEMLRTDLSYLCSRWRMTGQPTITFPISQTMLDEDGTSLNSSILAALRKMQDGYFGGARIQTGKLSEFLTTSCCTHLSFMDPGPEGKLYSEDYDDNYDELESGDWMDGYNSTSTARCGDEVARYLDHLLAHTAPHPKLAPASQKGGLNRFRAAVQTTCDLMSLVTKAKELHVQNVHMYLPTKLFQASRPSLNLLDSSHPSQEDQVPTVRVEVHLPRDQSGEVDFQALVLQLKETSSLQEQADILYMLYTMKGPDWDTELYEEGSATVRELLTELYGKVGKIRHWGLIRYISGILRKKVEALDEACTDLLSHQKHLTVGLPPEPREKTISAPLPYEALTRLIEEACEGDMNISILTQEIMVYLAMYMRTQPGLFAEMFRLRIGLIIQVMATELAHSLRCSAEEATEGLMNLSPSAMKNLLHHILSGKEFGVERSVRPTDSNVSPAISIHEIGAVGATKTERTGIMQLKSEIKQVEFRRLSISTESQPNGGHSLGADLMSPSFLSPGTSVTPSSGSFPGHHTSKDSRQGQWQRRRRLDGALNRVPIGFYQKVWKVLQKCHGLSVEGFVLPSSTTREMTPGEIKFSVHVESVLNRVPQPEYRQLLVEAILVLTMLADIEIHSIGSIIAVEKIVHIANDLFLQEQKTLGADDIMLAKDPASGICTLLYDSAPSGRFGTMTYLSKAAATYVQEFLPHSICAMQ
Kind of test: SEC; analytical Superdex 200 gel filtration of the PhK preparation several months after purification; fractions analysed by SDS-PAGE with Coomassie staining; subunits co-purified as the native complex. In general terms: In gel filtration, larger molecules generally elute earlier.

Test [2] addresses T2, phosphorylase kinase δ subunit (intrinsic calmodulin) (rabbit (endogenous in skeletal muscle), UniProt P62160 1-149).
T2 construct: phosphorylase kinase δ subunit, the intrinsic calmodulin; printed as 16.7 kDa, 148 amino acids; also called δ-calmodulin subunit; calmodulin-δ-subunit; source: purified from rabbit fast-twitch skeletal muscle as part of the PhK holoenzyme
Put plainly: cryo-EM structure; PhK holoenzyme alone, subunits co-purified as the native complex from muscle; 100 mM NaCl, 0.3 mM CaCl2, 5 mM MgCl2, 50 mM HEPES pH 8.2; single-particle reconstruction at 9.9 Å; PhKγt (PDB 2PHK) fitted as a rigid body.

Test [3] has as its target B1. The test is described as above.
Test [4] has as its target T1, phosphorylase kinase α subunit. The test is described as above.

B1: the binding result in test [1] is “binds”.

B2: phosphorylase kinase γ subunit (catalytic subunit) (natural protein)
chain: not shown
notes: phosphorylase kinase γ subunit, catalytic; also called γ catalytic subunit; γ kinase subunit; source: purified from rabbit fast-twitch skeletal muscle as part of the PhK holoenzyme
Take B2: the binding result in test [2], in test [3] and in test [4] was “binds” in each case.
